In IntAct's records for PubMed 24469399:

B1: NF-kappa-B essential modulator (Mus musculus), O88522 (parent)
chain: MNKHPWKNQLSEMVQPSGGPAEDQDMLGEESSLGKPAMLHLPSEQGTPETLQRCLEENQELRDAIRQSNQMLRERCEELLHFQVSQREEKEFLMCKFQEARKLVERLSLEKLDLRSQREQALKELEQLKKCQQQMAEDKASVKAQVTSLLGELQESQSRLEAATKDRQALEGRIRAVSEQVRQLESEREVLQQQHSVQVDQLRMQNQSVEAALRMERQAASEEKRKLAQLQAAYHQLFQDYDSHIKSSKGMQLEDLRQQLQQAEEALVAKQELIDKLKEEAEQHKIVMETVPVLKAQADIYKADFQAERHAREKLVEKKEYLQEQLEQLQREFNKLKVGCHESARIEDMRKRHVETPQPPLLPAPAHHSFHLALSNQRRSPPEEPPDFCCPKCQYQAPDMDTLQIHVMECIE

Variants of: B1
Conditions: with rnf31_mouse Rnf31, Q924T7
Chain of rnf31_mouse Rnf31, Q924T7 (Q924T7 whole entry): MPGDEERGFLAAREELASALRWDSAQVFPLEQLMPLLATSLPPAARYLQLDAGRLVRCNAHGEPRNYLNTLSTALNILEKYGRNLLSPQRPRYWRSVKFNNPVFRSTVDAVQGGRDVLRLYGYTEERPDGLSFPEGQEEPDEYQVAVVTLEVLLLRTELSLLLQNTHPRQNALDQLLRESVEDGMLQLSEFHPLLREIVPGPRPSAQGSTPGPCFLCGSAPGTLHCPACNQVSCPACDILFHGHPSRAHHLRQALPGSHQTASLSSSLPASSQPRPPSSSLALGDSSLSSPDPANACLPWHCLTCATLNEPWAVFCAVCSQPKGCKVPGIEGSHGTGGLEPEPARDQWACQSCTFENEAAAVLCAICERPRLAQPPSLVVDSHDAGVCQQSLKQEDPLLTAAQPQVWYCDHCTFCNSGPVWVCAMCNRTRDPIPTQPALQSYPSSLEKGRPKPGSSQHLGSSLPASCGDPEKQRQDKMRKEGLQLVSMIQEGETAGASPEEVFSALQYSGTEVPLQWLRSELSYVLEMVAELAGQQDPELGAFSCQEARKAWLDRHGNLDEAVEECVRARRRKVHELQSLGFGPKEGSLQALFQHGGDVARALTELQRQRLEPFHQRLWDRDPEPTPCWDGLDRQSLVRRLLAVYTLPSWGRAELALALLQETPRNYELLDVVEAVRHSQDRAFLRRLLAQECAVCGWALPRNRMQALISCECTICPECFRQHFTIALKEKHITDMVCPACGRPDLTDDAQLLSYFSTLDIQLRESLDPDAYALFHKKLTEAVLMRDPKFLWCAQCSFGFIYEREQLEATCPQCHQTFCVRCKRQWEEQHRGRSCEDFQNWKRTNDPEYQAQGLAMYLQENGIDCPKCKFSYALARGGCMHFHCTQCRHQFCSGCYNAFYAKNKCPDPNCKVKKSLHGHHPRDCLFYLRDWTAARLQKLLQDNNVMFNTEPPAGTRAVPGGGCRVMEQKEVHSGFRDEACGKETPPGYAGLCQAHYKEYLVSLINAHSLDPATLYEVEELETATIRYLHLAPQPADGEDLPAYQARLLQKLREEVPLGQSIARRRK

Variant	effect of a mutation on the interaction
Q271A	disrupting interaction

Variants of: B1
Conditions: with rnf31_mouse Rnf31, Q924T7
Remark: another data set of the same source

Variant	effect of a mutation on the interaction
D275A	disrupting interaction

Variants of: B1
Conditions: with rnf31_mouse Rnf31, Q924T7
Remark: another data set of the same source

Variant	effect of a mutation on the interaction
Q271A;D275A	disrupting interaction
